Laboratory results from patent US20140328851A1.

How the values were obtained:
[1] = biological target: High-density lipoprotein (HDL) particles (human) (UniProt P02647); assay: cell-based or functional assay
[2] = biological target: Low-density lipoprotein (LDL) particles (human) (UniProt P04114); assay: negative-staining EM, HDL•CETP•LDL ternary complexes
[3] = biological target: Low-density lipoprotein (LDL) particles (human) (UniProt P04114); assay: negative-staining EM, count of LDL•CETP complexes without antibody

B1: Recombinant human CETP (cholesteryl ester transfer protein) (protein)
chain: CSKGTSHEAGIVCRITKPALLVLNHETAKVIQTAFQRASYPDITGEKAMMLLGQVKYGLHNIQISHLSIASSQVELVEAKSIDVSIQNVSVVFKGTLKYGYTTAWWLGIDQSIDFEIDSAIDLQINTQLTCDSGRVRTDAPDCYLSFHKLLLHLQGEREPGWIKQLFTNFISFTLKLVLKGQICKEINVISNIMADFVQTRAASILSDGDIGVDISLTGDPVITASYLESHHKGHFIYKNVSEDLPLPTFSPTLLGDSRMLYFWFSERVFHSLAKVAFQDGRLMLSLMGDEFKAVLETWGFNTNQEIFQEVVGGFPSQAQVTVHCLKMPKISCQNKGVVVNSSVMVKFLFPRPDQQHSVAYTFEEDIVTTVQASYSKKKLFLSLLDFQITPKTVSNLTESSSESVQSFLQSMITAVGIPEVMSRLEVVFTALMNSKGVSLFDIINPEIITRDGFLLLQMDFGFPEHLLVDFLQSLS
[1]
  decrease of mean HDL particle size after 4 hours (NS-EM), HDL/CETP/LDL co-incubation without antibody: 25.8%
[2]
  percent of LDL particles connected to HDL particles by a CETP bridge: 25%
[3]
  percentage of binary complexes (LDL•CETP) without H300: 38%
